Experiment: soluble on expression in E. coli; label from the status in PepcDB or PDB records

Row | Sequence | soluble on expression in E. coli
1 | MSLAALDPITPAGGGTWRFPANEPLRLDSGGVIEGLEIAYQTYGQLNADKSNAVLICHALTGDQHVASPHPTTGKPGWWQRLVGPGKPLDPARHFIICSNVIGGCMGSTGPASINPATGKTYGLSFPVITIADMVRAQAMLVSALGVETLFAVVGGSMGGMQVQQWAVDYPERMFSAVVLASASRHSAQNIAFHEVGRQAIMADPDWRGGAYAEHGVRPEKGLAVARMAAHITYLSEPALQRKFGRELQRDGLSWGFDADFQVESYLRHQGSSFVDRFDANSYLYITRAMDYFDIAASHGGVLAKAFTRARNVRFCVLSFSSDWLYPTAENRHLVRALTAAGARAAFAEIESDKGHDAFLLDEPVMDAALEGFLASAERDRGLVEGHHHHHH | soluble
2 | MGSDKIHHHHHHWQVTGSKTTQDGVEAARMCGIDSYPLRLEPQLVCDTEDLDALMNVDALVITLPARRTGAGEGFYLQAVQEIVDTALAYHIPRIVFTSSTSVYGNVNGTVKENSPRLPQTASGQVLKELEDWLHNLPGTSVDILRLAGLVGPSRHPGRFFAGKSAPDGQHVVNLVHLQDVVAAIELLLQAPKGGHIYNLCAPRHPARGLFYPQMARELGLPPPVFSDSPDGGQGKIVDGNRICNELGFEYQYPDPLVMPME | not soluble
3 | MGSDKIHHHHHHMENLIFDIGFHKGEDTLFYLLKGYRVIAVDADPDLINEWQNIFKKYIENGKLLLLNYVISDTNDVDTDFYIGPNTIWSSTKVSISSRMCCKAIKKKIKSKRLDHLFHEYGTPFYCKIDIEGNDIIALQTMEKVSEKPLYISVETECIGEDEDIAGHELDTLNALYQLGYRKFKLVDQRTLTVLDYNCFYKNNSEHNWFEQIETNCKYAEELIVLSDTDQRVKFTDFFPGSSGPFGEELAGKWYDYPQAKEMLKKHREDKMRLNEPAWTFWCDWHATF | not soluble
4 | MGSDKIHHHHHHMQFVFDIDGTICFDRFQIDARIKAILKDAANYGHQISFASARSYRDCIDVLGQELSQKTVIGLNGGLAYKAGELILEKPMNHRAFDLALYYCHRYQLPYFVDDDFNYAHHLEQFIPFIHSVDPLKLAKEVGVEDLKHPIKMVVFFGNHLDKIAEVSHHLAKLEQLDITFHDDESCLYLNPKEVTKSSTIQELFDHDFVAFGNDRNDIAMFQAAVYSVQVGDFADLSPFADTQVLLRQDYHQAVADKIHETFEKFRA | not soluble
5 | MSYLIRVQIPDEPGSLGRVAEAVGLIGGNISSVDVVEAFSNGTVTDDMVVELPAGTMADELITAAHEVEGVEVDSIRPFSGRVDRRGQ | soluble
6 | MSLADISVIQSLPLSGSQAVTGRALNAGARLYFDWLNLNGGINGETIRLVARDDEQKIEQTVRNVRDMARVDNPVALLTVVGTANVEALMREGVLAEARLPLVGPATGASSMTTDPLVFPIKASYQQEIDKMITALVTIGVTRIGVLYQEDALGKEAITGVERTLKAHALAITAMASYPRNTANVGPAVDKLLAADVQAIFLGATAEPAAQFVRQYRARGGEAQLLGLSSIDPGILQKVAGLDAVRGYSLALVMPNPGKSVNPVIREFNRARAAVGAKDVDLSFRAVEGFVAAKVLAEAIRRAGPKPTREQVRHALTELRDYDVGGGFTVDFTDRSRPGSHYIELGVVGPNGLVIQEGHHHHHH | soluble
7 | MQIVKKEKFILKEYTFENGRTIPVQMGYETYGTLNRERSNVILICHYFSATSHAAGKYTAHDEESGWWDGLIGPGKAIDTNQYFVICTDNLCNVQVKNPHVITTGPKSINPKTGDEYAMDFPVFTFLDVARMQCELIKDMGIARLHAVMGPSAGGMIAQQWAVHYPHMVERMIGVITNPQNPIITSVNVAQNAIEAIRLDPSWKGGKYGEEQPMKGLQLANRMMFMNAFDEHFYETTYPRNSIEVEPYEKVSSLTSFEKEINKLTYRSIELVDANSWMYTAKAVLLHDIAHGFSSLEEALSNVEANVLMIPCKQDLLQPSRYNYKMVDLLQKQGKYAEVYEIESINGHMAGVFDIHLFEKKVYEFLNRKVSSFV | not soluble
8 | MGHHHHHHSHMAAVDIRDNLLGISWVDSSWIPILNSGSVLDYFSERSNPFYDRTCNNEVVKMQRLTLEHLNQMVGIEYILLHAQEPILFIIRKQQRQSPAQVIPLADYYIIAGVIYQAPDLGSVINSRVLTAVHGIQSAFDEAMSYCRYHPSKGYWWHFKDHEEQDKVRPKAKRKEEPSSIFQRQRVDALLLDLRQKFPPKFVQLKPGEKPVPVDQTKKEAEPIPETVKPEEKETTKNVQQTVSAKGPPEKRMRLQ | soluble
9 | MDKKANSNQNQEQKRETSDAVDRAAKAGLFNRIYVTVGQKVGIVELTKLEPRFERNIEKLTTYHNIIYNMVNAIELQVQVDPKAIVKNQVLCDPDESPWELLGGWINYMGTYHFNGPQSKILDAYSIACGKIGQKERQLQKRTRSHCIKKMRMYTADESVELNNHVAHLKDLLIAIDDSRHQLKSSRTTKEVKAKGEIYRKNIQAFNCTANEVQARLDEVPMIVPHHENELLKFSREVSIFNNSVENLLKEVVFRLGYGKRNDKPSTRAVLK | not soluble
10 | MIKNPKVLILTAHYGNGHVQVAKTLEQTFRQKGIEDVIVCDLFGESHPFITDITKYLYLKSYTIGKELYRLFYYGVEKIYDKKIASWYANFGRKRLKTLLQVEKPDIVINTFPIIAVPELKKQTGISIPVYNVLTDFCVHKIWIHREVDRYFVATDHVKELMVDIGVPAEQIVETGIPIRSSFELKVNPEIIYTKYQLCKNKKILLIVAGAHGVLGNVKELCQSFMSVPNLQVVVVCGKNEALKQDLLSLQKQNSDALKVFGYVENIDELFRVTSCMITKPGGITLSEAAALQVPVILYKPVPGQENENAMYFERKGAAVVIRDDSEVFAKTEALLQDDVKLLQMKEAMKSIYLPEPAGHIVDAILAENHAEPRHIPIKSPALAQSFTLEHHHHHH | not soluble
11 | MGSDKIHHHHHHMTNGVLWRSSLLSDYWFSHLPAALQDSVLHAARQVRKTPGKMLFEKGAAPCGLYALLEGDVRIGGAHFQRLGPRLEPIRRPYWFGEVSLFDEMPRRFDVCSLEQTIFLQVPHSFLVSLLDRHPEYWRHFAALLSQKLGLPLQNPEKLQLLPPRSRVASRLLLLSEGYGPLSHARRLITLDEVTSLQDLSHSALLEVLEDLHERKVVRLGIGQLEVFDVDKLRKIANFSRARAVC | not soluble
12 | MGSDKIHHHHHHMRPVYIATAYLGPIQQYCKMLQYPEVRIETAENYVKQTYRNRCVIAAANGPLSLSIPIVKPDTLKCQTKDIRISDHGNWRHLHWNALVSAYNMSPFFEYYADDLAPFYEKKYEFLLDFNEELRRLVCDLLDMQPAVVYTEHYEPEVANDFRETIRPKHEGEDPAFRPEPYYQVFREKFGFLPNLSIADLLFNMGPEGLVTLRASITGSL | not soluble
13 | MPWQQQPIRYSADLEKPSPREQADIEKIMAKLLKNNERAYDKYKHGLRDAHAKSHAILRGELIVNEGLPPELAQGLFAEPRTYPVIARLSSTSGVRRSDKTRGVRGLGLKVLGVQGEKILPDDSSTNQDFVMVTHEDFLFADAHAYAGLGMITASLLARLSDQALWLGSGLLDLVSKAGIKLPDNLMVFVAPNRPILGLEFFSSAPFRHGDHVAKYRFAPASENVKALSGQLLPRNPAPEQHRDMIAEFFADQTAEFDFSAQLCTDPVAMPIEDAGKNWDKSISPYVSVAKIVFGPQNPYSALRRAYGDDVLAFNSWRGLAEHRPLGSINRLKKTVYESSADYRHRVNRIDRHEPVDISELPDLEHHHHHH | not soluble
14 | MSLKGAQILVVEDELIVGMMIKLKLAKMGYCVSCMASTGADAVAMVEKVRPELVLMDIRLKGSLDGVEAAMMIRKISNIPIVFITADSSLETRERAELACPQGFLLKPFMDEELGSLVRSVFSNSMGGASAVNANEGHHHHHH | not soluble
15 | MGSDKIHHHHHHMVSEQVRERAKAGPIPKADYQALFDALEAERSPRDPEWVQAWIILHCATRQRAFACQRLLSRYNRQCVKRGTMGEYSEFLRHVQDDLGFYLPNGNAYTENFRGVDVGEIMAQCGELAARFAELELEVFANSGTLLGIVREGTLLEHDNDIDLGVLLTARTFEGAAQEWIALTDKLIADGVGVSRSTWSKVTLKLQKIGAFGVDLFPAWIDADDKVYVYPHTFGALRRDQLLPYDLHGPTGLHLPADAEAMLECNYGEGWRVPNVGWGFDWKTANAQFEAFLTAVEAAAAPD | not soluble
16 | LPAFFKTFDRQEDFMVDVFRLNIDALKENYLPLARFFENLNENTGNESSVILETSKSGMPNFRVKKGEHTFFVHSPYDPRTEAIRWAEKIDLKGFDTIAVLGIGCGYHIEELEKKYPDKNKIVIEPDRNVFLKLLNTRDITHLISSKNILFIISDNTEEIAKVFLLLREEGEIDSVEFNELLSYRKVYEDWWLELKKEYIKFARLHQINTNTSVFFAEAWLTNLFEGMWQLTKSVHIKEYKSAFANIPAIVVSAGPALNKNVHLLKELYNKAVIISAGSALNILESRGITPHIMVGVDGGEAESRIFNNVKSNEIYFAYSLSVHYDGLKNYSGPKIYFKTNVLGYGDWIDEKLGIEGAENLRSGSSVSNLSLDIARYMGCNPIIVIGQNLSFPNLESYADGAVLKQEQDRHIQQCVENSNKYYVLEKDIDGNDVYTTHSMLSIRFYFEEYIKNHPDRLYLNGSEEGLPIKGMKNMPLKEIVEKYCTKEYDIKGILDKKFKEEFEAENVKAKEIKIRRILEDIHKESTEIRQKAIKRIDLILDILSNIRGSHNDKWEEIDRLTDEIESSDLYKYFVEPLSKYFIQAVKNERERKMESIPDIQERLKYLYEGLLIQYVEVKDKIVLIDDLSQKIIENIDKKEATKCLSMV | soluble
17 | MGSDKIHHHHHHEQTVKIGILSDMSGPYSDMGGPGSVAAAQLAIDECLAKECKGMKIELLSIDHQNKPDIGVQKAREWADVNKVNAIADLTNSAVALGVQKLTLDHDFVAMYSGPATTKLTNEDCSATGFHWMFDTYALAAGSAQAITKMGGKSWYFLTVDYAFGHSLEADSMAMVKQLGGTVAGSVRHPLNTADMSSFLLQAQSSKAQVVALANGAADTINAIKTAREFGIVQGGQQVVPLLIFLTDIRSLGLEIAQGLTFTEGFYWDQDDQARAFAARFQKAFKDRKPTMVQAGTYSSVLHYLHAVAAAKTTEAKAVSAKMREMPISDAVMRNAAIRPDGRVIHDMLLVKVKSPAESKGDWDFYTIQATIPAAEAFKPLANSACPTVKK | not soluble
18 | RPDKVKLALDKTSYRAGDTLKVTITPPHPGKGLLLVESDKPLYVQAIDANPSTTLEIPVTADWERHDVYVTALVFRGGSASNNTTPARAVGEAYVPMQRKERRVAVGLVVPKQVRPAQSLPVTVSVPELAGKQAHVTISAVDAGILNITGF | not soluble
19 | MGSDKIHHHHHHMRKPRVFIGSSVESLPIADAIAENLEFDAEVTIWRNGTFNLSSNALDDLISKAKSVDFSIFIFSPDDLTIMKSREKYAVRDNVVFELGLFIGAIGKNRCFIVKPRDVDLHFPSDLLGITPTDFDANRSDEDLASSLNYSATQIKRAFKAQGLLELDSVQEKPRIDVNAQLATLTDTDMIALSVLLESVNSDVDGCASWDLYNRFNNYDFSSAQVNLAVIKLTRSGMIEKLNTSDFNGNEYFSYKLTEYGIDVCLSNQNRIETLIAPKKRQSGRDVPQQPPVRS | not soluble
20 | MRFFIALPAHAKRCRRAWRMEFISALPVGFAMNRRGLELRELLPLIPAEKLLIETDAPYLLPRDLTPKPSSRRNEPAHLPHILQRIAHWRGEDAAWLAATTDANVKTLFGIAFLEHHHHHH | not soluble
21 | APVGPLGQVKLTVWYHSDEQKLISIIHSCRALRQNGRDLPDPYVSVLLLPDKNRSTKRKTPQKKRTLNPEFNERFEWDLPLDGTLRRKLDVSVKSNSSFMSRERELLGKVQLDLAEIDLSQGAAQWYDLMDDRDKGGS | soluble

— the DeepSol protein solubility set
